The values below come from article PMC9107065.

The target of the experiment is 30-601-30 nucleosome with Cy3-labeled H2B(K120C) (Xenopus laevis). Kind of experiment: other fluorescence titration.

Substance “Saccharomyces cerevisiae Chd1[Y137A] (from UniProt P32657 118-1274) (enzyme)” displayed an other of 40%.
